{
  "source": "patent US9365620B2",
  "about": "“Methods for treating pain” (NoNO NC., priority 2008, dated 2016)",
  "note": "Entries after “also recorded” stand apart in the source; their conditions may differ. Non-standard residues stand in square brackets, D forms with d. No end group written: not given here. Tle = CC(C)(C)[C@H](N)C(=O)O; Nva = CCC[C@H](N)C(=O)O",
  "data": [
    {"target": "N-type Ca channels (Homo sapiens, UniProt Q00975)", "experiment": "not given", "format": "binding", "conditions": "peptide at 10 μM", "units": {"inhibition of radiolabeled ω-Conotoxin GVIA binding to N-type Ca channels": "%"}, "values": [
      {"sequence": "YGRKKRRQRRRKLSSIESDV [Tat-NR2B9c] (Synthetic peptide Tat-NR2B9c) [chimeric peptide of a standard tat peptide and …]", "inhibition of radiolabeled ω-Conotoxin GVIA binding to N-type Ca channels": 100}
    ]},
    {"target": "N-type calcium channels (Mus musculus, UniProt O55017)", "experiment": "not given", "format": "cell-based, Swiss mice", "conditions": "not given", "values": [
      {"sequence": "YGRKKRRQRRRALSSIESDV (synthetic 1994 peptide Tat-NR2B9c K to A) [Peptide 1994]", "Ca^2+ current shown as a percentage": "77+/−1.8%", "inhibition of N-type calcium channel activity": "no significant inhibition; also recorded: some reduction in the amount of N-type calcium channel activity"},
      {"sequence": "YGRKKRRQRRR [Peptide 1990]", "Ca^2+ current shown as a percentage": "57+/−1.6%"},
      {"sequence": "FGRKKRRQRRRALSSIESDV (synthetic 1995 peptide F-Tat-NR2B9c K to A) [Peptide 1995]", "Ca^2+ current shown as a percentage": "97+/−0.2%"},
      {"sequence": "YGRKKRRQRRRKLSSIESDV [1987] ([dY]G[dR][dK][dK][dR][dR][dQ][dR][dR][dR][dK][dL][dS][dS][dI][dE][dS][dD][dV]) [Peptide 1987, D-isomer of Tat-NR2B9c]", "Ca^2+ current shown as a percentage": "82+/−2.2%", "inhibition of N-type calcium channel activity": "some reduction in the amount of N-type calcium channel activity"},
      {"sequence": "KLSSIESDV (synthetic 1991 peptide 2B9c) [Peptide 1991, peptide 2B9c, the C-terminal portion of Tat-NR2B9c]", "Ca^2+ current shown as a percentage": "94+/−1.7%", "inhibition of N-type calcium channel activity": "no significant inhibition"},
      {"sequence": "YGRKKRRQRRRKLSSIESDX [1977] (YGRKKRRQRRRKLSSIESD[Tle]) [Peptide 1977, …X where X=L-t-butyl-glycine]", "Ca^2+ current shown as a percentage": "65+/−5.1%"},
      {"sequence": "YGRKKRRQRRRKLSSIEADA (synthetic 1992 peptide Tat-NR2B9c-AA) [Peptide 1992]", "Ca^2+ current shown as a percentage": "74+/−2.4%", "inhibition of N-type calcium channel activity": "some reduction in the amount of N-type calcium channel activity"},
      {"sequence": "YGRKKRRQRRRKLSSIESDX [1976] (YGRKKRRQRRRKLSSIESD[Nva]) [Peptide 1976, …X where X=norvaline]", "Ca^2+ current shown as a percentage": "66+/−3.4%"}
    ]},
    {"tested_on": "pain hypersensitivity after peripheral nerve injury", "experiment": "Paw withdrawal threshold (von Frey) after chronic constriction injury of the sciatic nerve", "format": "in vivo, Sprague-Dawley rats", "conditions": "high dose, 10 mg/kg i.v., rats, 60, 90, 120 min; 10 mg/kg", "source_text": "(§1) In these experiments, chronic constriction injury of the sciatic nerve was induced using the polyethylene cuff method (Mosconi T, Kruger L., Pain 1996, 64: 37-57). The left sciatic nerve of adult male Sprague-Dawley rats was exposed at mid-thigh level under halothane anesthesia. A polyethylene cuff (PE90 tubing, 2 mm in length) was slit open longitudinally and implanted around the sciatic nerve, and the animals were allowed to recover for a suitable period, e.g., 10-14 days. A sterile isotonic saline solution containing dissolved Tat-NR2B9c, or a saline-only control, was injected into the tail vein, with the animal under brief halothane anesthesia. Sensitivity to pain was measured by testing the paw withdrawal threshold of animals. Paw withdrawal thresholds to mechanical stimulation were assessed using Von-Frey filaments (Stoelting Co., Wood Dale, Ill., USA). Animals were placed in plastic cages with a plastic bottom. To test the tactile threshold required to evoke withdrawal of the stimulated paw, von Frey filaments (0.008-15.18 g) were applied perpendicularly to the plantar part of the hind paw in an ascending order. Each filament was applied for 5 times, and the paw withdrawal threshold was determined when there were three positive responses out of five times a filament was applied. To avoid tissue damage, the cut off threshold was assigned as 15.18 g.", "values": [
      {"sequence": "YGRKKRRQRRRKLSSIESDV (Synthetic peptide Tat-NR2B9c) [chimeric peptide of a standard tat peptide and …]", "reversal of pain hypersensitivity (paw withdrawal threshold)": "did not result in any apparent reversal of pain hypersensitivity; also recorded: had no effect on pain hypersensitivity; also recorded: showed no effect on pain hypersensitivity"}
    ]},
    {"tested_on": "pain hypersensitivity after peripheral nerve injury", "experiment": "Paw withdrawal threshold (von Frey) after chronic constriction injury of the sciatic nerve", "format": "in vivo, Sprague-Dawley rats", "conditions": "low dose, 100 pmol per animal i.v., rats, day 10-14 after surgery", "source_text": "as §1", "values": [
      {"sequence": "YGRKKRRQRRRKLSSIESDV (Synthetic peptide Tat-NR2B9c) [chimeric peptide of a standard tat peptide and …]", "reversal of pain hypersensitivity (paw withdrawal threshold)": "reversed pain hypersensitivity; also recorded: showed a decrease in pain hypersensitivity"}
    ]}
  ]
}
